Among the data in PMC6444592, “Citrullination of HP1γ chromodomain affects association with chromatin” (Epigenetics & Chromatin, 2019) are HP1γ citrullination by PADI4 in the in vitro citrullination assay with added H3K9me3 peptides (immunoblot with anti-peptidyl-citrulline antibody; fold change against unmethylated H3 peptide) values, retold here.

This assay addresses H3K9me3(1–16) peptide.

With “GST-HP1γWT (recombinant full-length mouse heterochromatin protein 1 gamma, wild type) (from UniProt P23198 1-183) (natural protein)”, the HP1γ citrullination by PADI4 in the in vitro citrullination assay with added H3K9me3 peptides (immunoblot with anti-peptidyl-citrulline antibody; fold change against unmethylated H3 peptide) was found to be 2 fold.
